Bridges are numbered along the chain shown (N, C = ends). Where no end group is shown, it is not given here. [ ]: non-standard residue; d: D form. Aib = CC(C)(N)C(=O)O

Consider 6 molecules from patent US20110166062A1 (INDIANA UNIVERSITY RESEARCH AND TECHNOLOGY, published 2011).

Experiment in all cases: cell-based or functional assay
Assay [1] has as its target glucagon receptor (UniProt P47871 26-477, limits assumed).
Assay [2] deals with GLP-1 receptor (UniProt P43220 24-463, limits assumed).
Assay [3] concerns the target T1, GIP receptor (UniProt P48546 22-466).
T1 sequence (looked up): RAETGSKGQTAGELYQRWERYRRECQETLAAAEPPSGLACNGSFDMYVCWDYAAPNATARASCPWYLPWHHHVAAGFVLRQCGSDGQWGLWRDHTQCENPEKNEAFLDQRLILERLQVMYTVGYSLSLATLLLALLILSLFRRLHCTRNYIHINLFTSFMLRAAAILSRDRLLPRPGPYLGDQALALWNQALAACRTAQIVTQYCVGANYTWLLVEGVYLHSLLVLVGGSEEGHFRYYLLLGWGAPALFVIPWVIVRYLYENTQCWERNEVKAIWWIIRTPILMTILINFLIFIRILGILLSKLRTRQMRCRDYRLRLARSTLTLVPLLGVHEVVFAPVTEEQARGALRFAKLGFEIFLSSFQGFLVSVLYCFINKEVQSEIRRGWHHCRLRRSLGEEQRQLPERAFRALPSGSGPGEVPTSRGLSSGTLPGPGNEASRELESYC

Chain of glucagon receptor (P47871 26-477 limits assumed): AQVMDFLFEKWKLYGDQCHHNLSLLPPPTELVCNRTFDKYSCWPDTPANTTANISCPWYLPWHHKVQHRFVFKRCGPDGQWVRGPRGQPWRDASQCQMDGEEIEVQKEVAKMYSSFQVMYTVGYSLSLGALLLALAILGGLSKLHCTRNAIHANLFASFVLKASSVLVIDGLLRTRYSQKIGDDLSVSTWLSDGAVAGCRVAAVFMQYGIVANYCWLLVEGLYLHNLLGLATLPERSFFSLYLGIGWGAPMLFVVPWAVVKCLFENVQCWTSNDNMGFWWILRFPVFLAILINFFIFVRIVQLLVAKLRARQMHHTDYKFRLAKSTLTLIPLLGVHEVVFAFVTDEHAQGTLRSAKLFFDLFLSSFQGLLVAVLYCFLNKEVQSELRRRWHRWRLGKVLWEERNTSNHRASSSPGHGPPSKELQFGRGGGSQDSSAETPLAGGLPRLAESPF

B1: mt-165 (peptide)
peptide: Y[Aib]QGTFTSDYSIYLDEQAAKEFVNWLLAGGPSSGAPPPSC-NH2
modifications: lactam 16-20; N-terminus assumed
SMILES: CC[C@H](C)[C@H](NC(=O)[C@H](CO)NC(=O)[C@H](Cc1ccc(O)cc1)NC(=O)[C@H](CC(=O)O)NC(=O)[C@H](CO)NC(=O)[C@@H](NC(=O)[C@H](Cc1ccccc1)NC(=O)[C@@H](NC(=O)CNC(=O)[C@H](CCC(N)=O)NC(=O)C(C)(C)NC(=O)[C@@H](N)Cc1ccc(O)cc1)[C@@H](C)O)[C@@H](C)O)C(=O)N[C@@H](Cc1ccc(O)cc1)C(=O)N[C@@H](CC(C)C)C(=O)N[C@@H](CC(=O)O)C(=O)N[C@H]1CCC(=O)NCCCC[C@@H](C(=O)N[C@@H](CCC(=O)O)C(=O)N[C@@H](Cc2ccccc2)C(=O)N[C@H](C(=O)N[C@@H](CC(N)=O)C(=O)N[C@@H](Cc2c[nH]c3ccccc23)C(=O)N[C@@H](CC(C)C)C(=O)N[C@@H](CC(C)C)C(=O)N[C@@H](C)C(=O)NCC(=O)NCC(=O)N2CCC[C@H]2C(=O)N[C@@H](CO)C(=O)N[C@@H](CO)C(=O)NCC(=O)N[C@@H](C)C(=O)N2CCC[C@H]2C(=O)N2CCC[C@H]2C(=O)N2CCC[C@H]2C(=O)N[C@@H](CO)C(=O)N[C@@H](CS)C(N)=O)C(C)C)NC(=O)[C@H](C)NC(=O)[C@H](C)NC(=O)[C@H](CCC(N)=O)NC1=O
As usually defined, the EC50 is the midpoint of the concentration-response curve. Lower therefore signals higher potency in that assay. As to B1, the results for the “EC50” value in assay [1], in assay [2] and in assay [3] were 0.489 nM, 0.023 nM and 0.074 nM, respectively. In addition, the relative activity is 18.8% in assay [1], 148% in assay [2] and 27% in assay [3].

B2: mt-163 (peptide)
peptide: YSQGTFTSDYSIYLDEQAAKEFVNWLLAG-NH2
modifications: lactam 16-20; N-terminus assumed
SMILES: CC[C@H](C)[C@H](NC(=O)[C@H](CO)NC(=O)[C@H](Cc1ccc(O)cc1)NC(=O)[C@H](CC(=O)O)NC(=O)[C@H](CO)NC(=O)[C@@H](NC(=O)[C@H](Cc1ccccc1)NC(=O)[C@@H](NC(=O)CNC(=O)[C@H](CCC(N)=O)NC(=O)[C@H](CO)NC(=O)[C@@H](N)Cc1ccc(O)cc1)[C@@H](C)O)[C@@H](C)O)C(=O)N[C@@H](Cc1ccc(O)cc1)C(=O)N[C@@H](CC(C)C)C(=O)N[C@@H](CC(=O)O)C(=O)N[C@H]1CCC(=O)NCCCC[C@@H](C(=O)N[C@@H](CCC(=O)O)C(=O)N[C@@H](Cc2ccccc2)C(=O)N[C@H](C(=O)N[C@@H](CC(N)=O)C(=O)N[C@@H](Cc2c[nH]c3ccccc23)C(=O)N[C@@H](CC(C)C)C(=O)N[C@@H](CC(C)C)C(=O)N[C@@H](C)C(=O)NCC(N)=O)C(C)C)NC(=O)[C@H](C)NC(=O)[C@H](C)NC(=O)[C@H](CCC(N)=O)NC1=O
For the molecule B2, the “EC50” value in assay [1] turned out to be 0.027 nM; in assay [2] it was 0.04 nM; in assay [3] it was 0.74 nM. Further, the figures for the relative activity in assay [1], in assay [2] and in assay [3] were 252%, 30% and 4.73%, respectively.

B3: mt-164 (peptide)
peptide: Y[Aib]QGTFTSDYSIYLDEQAAKEFVNWLLAG-NH2
modifications: lactam 16-20; N-terminus assumed
SMILES: CC[C@H](C)[C@H](NC(=O)[C@H](CO)NC(=O)[C@H](Cc1ccc(O)cc1)NC(=O)[C@H](CC(=O)O)NC(=O)[C@H](CO)NC(=O)[C@@H](NC(=O)[C@H](Cc1ccccc1)NC(=O)[C@@H](NC(=O)CNC(=O)[C@H](CCC(N)=O)NC(=O)C(C)(C)NC(=O)[C@@H](N)Cc1ccc(O)cc1)[C@@H](C)O)[C@@H](C)O)C(=O)N[C@@H](Cc1ccc(O)cc1)C(=O)N[C@@H](CC(C)C)C(=O)N[C@@H](CC(=O)O)C(=O)N[C@H]1CCC(=O)NCCCC[C@@H](C(=O)N[C@@H](CCC(=O)O)C(=O)N[C@@H](Cc2ccccc2)C(=O)N[C@H](C(=O)N[C@@H](CC(N)=O)C(=O)N[C@@H](Cc2c[nH]c3ccccc23)C(=O)N[C@@H](CC(C)C)C(=O)N[C@@H](CC(C)C)C(=O)N[C@@H](C)C(=O)NCC(N)=O)C(C)C)NC(=O)[C@H](C)NC(=O)[C@H](C)NC(=O)[C@H](CCC(N)=O)NC1=O
Turning to B3, the results for the “EC50” value in assay [1], in assay [2] and in assay [3] were 0.151 nM, 0.046 nM and 0.164 nM, respectively. Moreover, the relative activity is 110% in assay [1], 56.5% in assay [2] and 16.5% in assay [3].

B4: mt-166 (peptide)
peptide: Y[dA]QGTFTSDYSIYLDEQAAKEFVNWLLAGGPSSGAPPPSC-NH2
modifications: lactam 16-20; N-terminus assumed
SMILES: CC[C@H](C)[C@H](NC(=O)[C@H](CO)NC(=O)[C@H](Cc1ccc(O)cc1)NC(=O)[C@H](CC(=O)O)NC(=O)[C@H](CO)NC(=O)[C@@H](NC(=O)[C@H](Cc1ccccc1)NC(=O)[C@@H](NC(=O)CNC(=O)[C@H](CCC(N)=O)NC(=O)[C@@H](C)NC(=O)[C@@H](N)Cc1ccc(O)cc1)[C@@H](C)O)[C@@H](C)O)C(=O)N[C@@H](Cc1ccc(O)cc1)C(=O)N[C@@H](CC(C)C)C(=O)N[C@@H](CC(=O)O)C(=O)N[C@H]1CCC(=O)NCCCC[C@@H](C(=O)N[C@@H](CCC(=O)O)C(=O)N[C@@H](Cc2ccccc2)C(=O)N[C@H](C(=O)N[C@@H](CC(N)=O)C(=O)N[C@@H](Cc2c[nH]c3ccccc23)C(=O)N[C@@H](CC(C)C)C(=O)N[C@@H](CC(C)C)C(=O)N[C@@H](C)C(=O)NCC(=O)NCC(=O)N2CCC[C@H]2C(=O)N[C@@H](CO)C(=O)N[C@@H](CO)C(=O)NCC(=O)N[C@@H](C)C(=O)N2CCC[C@H]2C(=O)N2CCC[C@H]2C(=O)N2CCC[C@H]2C(=O)N[C@@H](CO)C(=O)N[C@@H](CS)C(N)=O)C(C)C)NC(=O)[C@H](C)NC(=O)[C@H](C)NC(=O)[C@H](CCC(N)=O)NC1=O
Take B4: the “EC50” value in assay [1] came out at 0.875 nM; in assay [2], 0.134 nM; in assay [3] it was 0.32 nM. The results for the relative activity in assay [1], in assay [2] and in assay [3] were 9.83%, 26.9% and 5.94%, respectively.

B5: mt-167 (peptide)
peptide: YSQGTFTSDYSIYLDEEAAKEFVNWLLAGGPSSGAPPPS-NH2
modifications: lactam 17-20; N-terminus assumed
SMILES: CC[C@H](C)[C@H](NC(=O)[C@H](CO)NC(=O)[C@H](Cc1ccc(O)cc1)NC(=O)[C@H](CC(=O)O)NC(=O)[C@H](CO)NC(=O)[C@@H](NC(=O)[C@H](Cc1ccccc1)NC(=O)[C@@H](NC(=O)CNC(=O)[C@H](CCC(N)=O)NC(=O)[C@H](CO)NC(=O)[C@@H](N)Cc1ccc(O)cc1)[C@@H](C)O)[C@@H](C)O)C(=O)N[C@@H](Cc1ccc(O)cc1)C(=O)N[C@@H](CC(C)C)C(=O)N[C@@H](CC(=O)O)C(=O)N[C@@H](CCC(=O)O)C(=O)N[C@H]1CCC(=O)NCCCC[C@@H](C(=O)N[C@@H](CCC(=O)O)C(=O)N[C@@H](Cc2ccccc2)C(=O)N[C@H](C(=O)N[C@@H](CC(N)=O)C(=O)N[C@@H](Cc2c[nH]c3ccccc23)C(=O)N[C@@H](CC(C)C)C(=O)N[C@@H](CC(C)C)C(=O)N[C@@H](C)C(=O)NCC(=O)NCC(=O)N2CCC[C@H]2C(=O)N[C@@H](CO)C(=O)N[C@@H](CO)C(=O)NCC(=O)N[C@@H](C)C(=O)N2CCC[C@H]2C(=O)N2CCC[C@H]2C(=O)N2CCC[C@H]2C(=O)N[C@@H](CO)C(N)=O)C(C)C)NC(=O)[C@H](C)NC(=O)[C@H](C)NC1=O
As for B5, the 50% effective concentration (EC50) in assay [1] was determined as 0.362 nM; in assay [2], 0.315 nM; in assay [3], 0.399 nM. The relative activity was 34.5% in assay [1], 7.94% in assay [2] and 5.01% in assay [3].

B6: mt-162 (peptide)
peptide: Y[Aib]QGTFTSDYSYYLDEQAVKEFVNWLIAGGPSSGAPPPS-NH2
modifications: lactam 16-20; N-terminus assumed
SMILES: CC[C@H](C)[C@H](NC(=O)[C@H](CC(C)C)NC(=O)[C@H](Cc1c[nH]c2ccccc12)NC(=O)[C@H](CC(N)=O)NC(=O)[C@@H](NC(=O)[C@H](Cc1ccccc1)NC(=O)[C@H](CCC(=O)O)NC(=O)[C@@H]1CCCCNC(=O)CC[C@H](NC(=O)[C@H](CC(=O)O)NC(=O)[C@H](CC(C)C)NC(=O)[C@H](Cc2ccc(O)cc2)NC(=O)[C@H](Cc2ccc(O)cc2)NC(=O)[C@H](CO)NC(=O)[C@H](Cc2ccc(O)cc2)NC(=O)[C@H](CC(=O)O)NC(=O)[C@H](CO)NC(=O)[C@@H](NC(=O)[C@H](Cc2ccccc2)NC(=O)[C@@H](NC(=O)CNC(=O)[C@H](CCC(N)=O)NC(=O)C(C)(C)NC(=O)[C@@H](N)Cc2ccc(O)cc2)[C@@H](C)O)[C@@H](C)O)C(=O)N[C@@H](CCC(N)=O)C(=O)N[C@@H](C)C(=O)N[C@@H](C(C)C)C(=O)N1)C(C)C)C(=O)N[C@@H](C)C(=O)NCC(=O)NCC(=O)N1CCC[C@H]1C(=O)N[C@@H](CO)C(=O)N[C@@H](CO)C(=O)NCC(=O)N[C@@H](C)C(=O)N1CCC[C@H]1C(=O)N1CCC[C@H]1C(=O)N1CCC[C@H]1C(=O)N[C@@H](CO)C(N)=O
With B6, the “EC50” value in assay [1] is 7 nM; in assay [2] it was 0.011 nM; in assay [3] it was 0.136 nM. The figures for the relative activity in assay [1], in assay [2] and in assay [3] were 0.97%, 109% and 25.7%, respectively.
